Here are results for 5 molecules from PMC10564622 (Free Radical Biology & Medicine, 2023).

The labels stand for the following.
B1: CUL3_(NTDΔ22) (CUL3 residues 23–388, I342R L346D) (domain or fragment, human, UniProt Q13618 23-388, looked up)
chain: MTMDEKYVNSIWDLLKNAIQEIQRKNNSGLSFEELYRNAYTMVLHKHGEKLYTGLREVVTEHLINKVREDVLNSLNNNFLQTLNQAWNDHQTAMVMIRDILMYMDRVYVQQNNVENVYNLGLIIFRDQVVRYGCIRDHLRQTLLDMIARERKGEVVDRGAIRNACQMLMILGLEGRSVYEEDFEAPFLEMSAEFFQMESQKFLAENSASVYIKKVEARINEEIERVMHCLDKSTEEPIVKVVERELISKHMKTIVEMENSGLVHMLKNGKTEDLGCMYKLFSRVPNGLKTMCECMSSYLREQGKALVSEEGEGKNPVDYRQGLDDLKSRFDRFLLESFNNDRLFKQTIAGDFEYFLNLNSRSPEYL
notes: human CUL3, Uniprot Q13618, residues 23–388, vector pNIC-CTHF, with stabilising mutations I342R and L346D; also called CUL3_(NTDΔN22); source: E. coli BL21(DE3)-pRARE2, purified (nickel sepharose, TEV cleavage, SEC); not shown: His6, C-terminal, cleaved; FLAG, C-terminal, cleaved
B4: CoraFluor-1-labeled KLHL11_(BTB-BACK) (domain or fragment, human, UniProt Q9NVR0 67-340, looked up)
chain: EAEDFECSSHCSELSWRQNEQRRQGLFCDITLCFGGAGGREFRAHRSVLAAATEYFTPLLSGQFSESRSGRVEMRKWSSEPGPEPDTVEAVIEYMYTGRIRVSTGSVHEVLELADRFLLIRLKEFCGEFLKKKLHLSNCVAIHSLAHMYTLSQLALKAADMIRRNFHKVIQDEEFYTLPFHLIRDWLSDLEITVDSEEVLFETVLKWVQRNAEERERYFEELFKLLRLSQMKPTYLTRHVKPERLVANNEVCVKLVADAVERHALRAENIQSGT
modifications: CoraFluor-1 by direct acylation with CoraFluor-1-Pfp (sites not given)
notes: human KLHL11, Uniprot Q9NVR0, residues 67–340, vector pNIC28-Bsa4; source: E. coli BL21(DE3)-pRARE2, purified (nickel sepharose, TEV cleavage, SEC), labeled with CoraFluor-1-Pfp; not shown: His6, N-terminal, cleaved

Holding throughout (settings): both partners purified
In assay [1] the target is CoraFluor-1-labeled KEAP1FL (full-length, untagged KEAP1, residues 1–624) (human, UniProt Q14145 1-624, CoraFluor-1 by direct acylation with CoraFluor-1-Pfp (sites not given)). The assay is described as follows: FRET or BRET; TR-FRET protein displacement assay: CoraFluor-1-labeled KEAP1FL + AF488-labeled CUL3NTD, unlabeled protein titrated (cmax 25 μM); assay buffer pH 7.5, 2 h, room temperature; KD from IC50 by Cheng-Prusoff.

Assay [2] deals with B4. The assay is described as follows: FRET or BRET; TR-FRET protein displacement assay: CoraFluor-1-labeled KLHL11_(BTB-BACK) + AF488-labeled CUL3NTD, unlabeled protein titrated (cmax 25 μM); assay buffer pH 7.5, 2 h, room temperature; KD from IC50 by Cheng-Prusoff.
In assay [3] the target is T1, CUL3 N-terminal domain (CUL3NTD, residues 1-388), unlabeled (human, UniProt Q13618 1-388, I342R | L346D).
T1 construct: human CUL3 N-terminal domain, residues 1-388, in vector pNIC-CTHF, with the stabilising mutations I342R and L346D; source: E. coli BL21(DE3)-pRARE2, purified (nickel sepharose, TEV cleavage, SEC); not shown: His6, C-terminal, cleaved; FLAG, C-terminal, cleaved
The assay is described as follows: BLI; Octet RED384; biotinylated KEAP1BTB-3-box immobilised on streptavidin tips; analyte in 50 mM HEPES, 300 mM NaCl, 0.5 mM TCEP, 10 mM DTT, 0.01% TWEEN-20; steady-state equilibrium analysis, 1:1 model; apparent.

Assay [4] concerns the target T1, CUL3 N-terminal domain (CUL3NTD, …). As to the kind of experiment: BLI; Octet RED384; biotinylated KEAP1BTB-3-box immobilised on streptavidin tips; analyte in 50 mM HEPES, 300 mM NaCl, 0.5 mM TCEP, 10 mM DTT, 0.01% TWEEN-20; kinetic global fit, 1:1 model; apparent.
Assay [5] deals with T2, full length CUL3-RBX1 complex (human | , UniProt Q13618 1-768; P62877 1-108). The assay is described as above.
For assay [6], the target named is T1, CUL3 N-terminal domain (CUL3NTD, …). The description is as above. The source holds these as a separate data set.
For assay [7], the target named is T2, full length CUL3-RBX1 complex. As to the kind of experiment: BLI; Octet RED384; biotinylated KEAP1BTB-3-box immobilised on streptavidin tips; analyte in 50 mM HEPES, 300 mM NaCl, 0.5 mM TCEP, 10 mM DTT, 0.01% TWEEN-20; steady-state equilibrium analysis, 1:1 model; apparent.
For assay [8], the target named is T3, AF488-labeled CUL3NTD (human, UniProt Q13618 1-388, I342R | L346D, AF488 by direct acylation with AF488-Tfp (sites not given)).
T3 construct: human CUL3 N-terminal domain, residues 1-388, in vector pNIC-CTHF, with the stabilising mutations I342R and L346D; Fluorescent tracer of the TR-FRET assays; also called AF488-CUL3NTD; source: E. coli BL21(DE3)-pRARE2, purified (nickel sepharose, TEV cleavage, SEC), labeled with AF488-Tfp; not shown: His6, C-terminal, cleaved; FLAG, C-terminal, cleaved
The assay is described as follows: FRET or BRET; TR-FRET protein displacement assay: CoraFluor-1-labeled KLHL11 (3 nM at 1.5x) and AF488-labeled CUL3NTD (45 nM at 1.5x); unlabeled protein titrated 1:3, 12 points, cmax 25 uM; 2 h at room temperature; 25 mM HEPES, 150 mM NaCl, 1 mM DTT, 0.5 mg/mL BSA, 0.005% TWEEN-20, pH 7.5; KD from IC50 by Cheng-Prusoff.

The target of assay [9] is T4, AF488-labeled CUL3NTD (human, UniProt Q13618 1-388, I342R | L346D, AF488 by direct acylation with AF488-Tfp (sites not given)).
T4 construct: human CUL3, Uniprot Q13618, residues 1–388, vector pNIC-CTHF, with stabilising mutations I342R and L346D; also called AF488-CUL3NTD; source: E. coli BL21(DE3)-pRARE2, purified (nickel sepharose, TEV cleavage, SEC), labeled with AF488-Tfp; not shown: His6, C-terminal, cleaved; FLAG, C-terminal, cleaved
The assay is described as follows: FRET or BRET; TR-FRET saturation binding: AF488-labeled CUL3NTD titrated (cmax 1000 nM) onto CoraFluor-1-labeled KEAP1 or KLHL11; 25 mM HEPES, 150 mM NaCl, 1 mM DTT, 0.5 mg/mL BSA, 0.005% TWEEN-20, pH 7.5; 2 h, room temperature; One Site – Total Binding model.

For assay [10], the target named is T4, AF488-labeled CUL3NTD. The assay is described as follows: FRET or BRET; TR-FRET dissociation: pre-equilibrated 20 nM CoraFluor-1-KEAP1 + 300 nM AF488-CUL3NTD, or 2 nM CoraFluor-1-KLHL11 + 45 nM AF488-CUL3NTD; 25 μM unlabeled KLHL11 added, read for 30 min; one-phase decay.
Assay [11] concerns the target B1. As to the kind of experiment: FRET or BRET; TR-FRET protein displacement assay: CoraFluor-1-labeled KLHL11_(BTB-BACK) + AF488-labeled CUL3NTD, unlabeled protein titrated (cmax 25 μM); assay buffer pH 7.5, 2 h, room temperature; KD from IC50 by Cheng-Prusoff.
The target in assay [12] is T1, CUL3 N-terminal domain (CUL3NTD, …). The assay is described as follows: FRET or BRET; TR-FRET protein displacement assay: CoraFluor-1-labeled KLHL11 (3 nM at 1.5x) and AF488-labeled CUL3NTD (45 nM at 1.5x); unlabeled protein titrated 1:3, 12 points, cmax 25 uM; 2 h at room temperature; 25 mM HEPES, 150 mM NaCl, 1 mM DTT, 0.5 mg/mL BSA, 0.005% TWEEN-20, pH 7.5; KD from IC50 by Cheng-Prusoff.

T2 sequence (Q13618 whole entry, chain 1 of 2, the tested form may be a part): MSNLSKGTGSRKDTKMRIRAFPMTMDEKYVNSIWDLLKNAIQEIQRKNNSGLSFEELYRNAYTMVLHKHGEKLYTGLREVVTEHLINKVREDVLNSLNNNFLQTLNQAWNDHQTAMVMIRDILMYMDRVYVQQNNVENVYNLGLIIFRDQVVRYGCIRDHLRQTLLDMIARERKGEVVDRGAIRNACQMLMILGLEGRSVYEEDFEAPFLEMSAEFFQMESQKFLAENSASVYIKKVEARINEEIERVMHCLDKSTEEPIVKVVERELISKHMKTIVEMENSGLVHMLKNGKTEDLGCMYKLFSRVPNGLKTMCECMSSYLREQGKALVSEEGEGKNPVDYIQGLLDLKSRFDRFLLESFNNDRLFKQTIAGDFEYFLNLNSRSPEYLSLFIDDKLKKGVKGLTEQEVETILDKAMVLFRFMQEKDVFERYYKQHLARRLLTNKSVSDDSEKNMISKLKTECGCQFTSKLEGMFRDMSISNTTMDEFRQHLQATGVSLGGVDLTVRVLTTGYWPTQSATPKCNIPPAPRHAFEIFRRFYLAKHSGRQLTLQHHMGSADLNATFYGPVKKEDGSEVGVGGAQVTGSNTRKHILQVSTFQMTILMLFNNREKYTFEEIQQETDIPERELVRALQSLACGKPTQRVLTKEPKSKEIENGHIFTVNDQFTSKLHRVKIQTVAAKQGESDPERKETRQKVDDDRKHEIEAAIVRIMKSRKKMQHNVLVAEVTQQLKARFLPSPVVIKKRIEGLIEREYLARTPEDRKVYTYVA
T2 sequence (P62877 whole entry, chain 2 of 2, the tested form may be a part): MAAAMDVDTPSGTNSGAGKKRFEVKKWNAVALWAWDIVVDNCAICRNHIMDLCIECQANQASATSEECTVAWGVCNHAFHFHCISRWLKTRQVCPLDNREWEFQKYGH
Sequence of CoraFluor-1-labeled KEAP1FL (full-length, untagged KEAP1, residues 1–624) (Q14145 whole entry, the tested form may be a part): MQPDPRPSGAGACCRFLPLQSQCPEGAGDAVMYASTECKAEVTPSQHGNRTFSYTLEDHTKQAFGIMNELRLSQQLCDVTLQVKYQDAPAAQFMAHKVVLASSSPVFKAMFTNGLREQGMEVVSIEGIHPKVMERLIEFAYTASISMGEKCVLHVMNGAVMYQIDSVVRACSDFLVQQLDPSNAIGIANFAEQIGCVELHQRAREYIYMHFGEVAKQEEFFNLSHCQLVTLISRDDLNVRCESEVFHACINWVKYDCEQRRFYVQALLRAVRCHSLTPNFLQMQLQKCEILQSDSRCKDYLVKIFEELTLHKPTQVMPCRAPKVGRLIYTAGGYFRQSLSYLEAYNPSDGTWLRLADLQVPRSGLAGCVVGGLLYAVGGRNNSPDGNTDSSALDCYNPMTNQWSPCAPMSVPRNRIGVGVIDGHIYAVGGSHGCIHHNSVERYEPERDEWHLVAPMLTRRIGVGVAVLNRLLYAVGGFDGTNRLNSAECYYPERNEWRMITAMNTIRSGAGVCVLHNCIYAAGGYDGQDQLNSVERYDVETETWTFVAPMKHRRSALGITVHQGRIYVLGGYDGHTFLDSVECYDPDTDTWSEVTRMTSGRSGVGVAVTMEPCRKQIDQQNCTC

In the case of B1, in [1], the Kd came out at 13800 nM. In addition, the “fold decrease of affinity against CUL3NTD” value in assay [2] is > 200 fold.

B2: Biotinylated KEAP1 BTB-3-box (residues 48-213) (domain or fragment, human, UniProt Q14145 48-213, looked up)
chain: GNRTFSYTLEDHTKQAFGIMNELRLSQQLCDVTLQVKYQDAPAAQFMAHKVVLASSSPVFKAMFTNGLREQGMEVVSIEGIHPKVMERLIEFAYTASISMGEKCVLHVMNGAVMYQIDSVVRACSDFLVQQLDPSNAIGIANFAEQIGCVELHQRAREYIYMHFGE
modifications: biotin on the avi tag
Consider B2, for which the Kd in [3] is 2900 nM; in assay [5], 5600 nM; in assay [6], 5200 nM; in assay [7], 4400 nM. For the same molecule, the figures for the koff in assay [4] and in assay [5] were 0.189 s⁻¹ and 0.187 s⁻¹, respectively. Besides, the kon worked out at 36600 M⁻¹ s⁻¹ in assay [4] and 33200 M⁻¹ s⁻¹ in assay [5].

B3: KLHL11 BTB-BACK (residues 67-340), unlabeled (domain or fragment, human, UniProt Q9NVR0 67-340, looked up)
chain: EAEDFECSSHCSELSWRQNEQRRQGLFCDITLCFGGAGGREFRAHRSVLAAATEYFTPLLSGQFSESRSGRVEMRKWSSEPGPEPDTVEAVIEYMYTGRIRVSTGSVHEVLELADRFLLIRLKEFCGEFLKKKLHLSNCVAIHSLAHMYTLSQLALKAADMIRRNFHKVIQDEEFYTLPFHLIRDWLSDLEITVDSEEVLFETVLKWVQRNAEERERYFEELFKLLRLSQMKPTYLTRHVKPERLVANNEVCVKLVADAVERHALRAENIQSGT
notes: human KLHL11 BTB and BACK domains, residues 67-340, in vector pNIC28-Bsa4; source: E. coli BL21(DE3)-pRARE2, purified (nickel sepharose, TEV cleavage, SEC); not shown: His6, N-terminal, cleaved
The molecule B3 showed a Kd with AF488-labeled CUL3NTD [8] of 14 nM.
B4: the Kd turned out to be 20 nM with AF488-labeled CUL3NTD [9] and 1840 nM in assay [11]. Besides, the koff in the assay with AF488-labeled CUL3NTD [10] was 0.00381 s⁻¹.

B5: CoraFluor-1-labeled KLHL11 BTB-BACK (domain or fragment, human, UniProt Q9NVR0 67-340, looked up)
chain: EAEDFECSSHCSELSWRQNEQRRQGLFCDITLCFGGAGGREFRAHRSVLAAATEYFTPLLSGQFSESRSGRVEMRKWSSEPGPEPDTVEAVIEYMYTGRIRVSTGSVHEVLELADRFLLIRLKEFCGEFLKKKLHLSNCVAIHSLAHMYTLSQLALKAADMIRRNFHKVIQDEEFYTLPFHLIRDWLSDLEITVDSEEVLFETVLKWVQRNAEERERYFEELFKLLRLSQMKPTYLTRHVKPERLVANNEVCVKLVADAVERHALRAENIQSGT
modifications: CoraFluor-1 by direct acylation with CoraFluor-1-Pfp (sites not given)
notes: human KLHL11 BTB and BACK domains, residues 67-340, in vector pNIC28-Bsa4; TR-FRET donor protein; source: E. coli BL21(DE3)-pRARE2, purified (nickel sepharose, TEV cleavage, SEC), labeled with CoraFluor-1-Pfp; not shown: His6, N-terminal, cleaved
B5: in [12], the Kd was determined as 8 nM.
